Measurements as given in patent US20260242472A1 (SANYOU BIOPHARMACEUTICALS, published 2026).

How the values were obtained:
[1] = target: T1, H2C-scFv-LH (human); experiment: SPR (Biacore T200), antigen amine-coupled to about 75 RU, antibody 4 and 20 nM, 1:1 Langmuir fit
T1 construct: also called control antibody H2C-scFv-LH; parent antibody
Procedure: Protein coupling: The huCD3E-AA1-27-huFc protein produced in example 1.2 was diluted to 5.8 μg/mL with an NaAc buffer at pH 4.5. The flow rate was set to 10 μL/min. The chip was activated with a mixture of 1-ethyl-(3-dimethylaminopropyl)carbodiimide (EDC) and N-hydroxysuccinimide (NHS) for the default time of 420 s. The antigen protein huCD3E AA1-27-huFc was immobilized to a level of approximately 75 RU using a coupling mode with a preset coupling amount. The activated groups not bound to the test sample were blocked with ethanolamine.
Sample test condition: A PBS buffer (pH 7.4) containing 0.05% Tween-20 was used as a running buffer, and the running buffer was used as a control antibody test sample. A series of antibody concentrations (4 nM, 20 nM) were set. During sample analysis, the flow rate was set to 30 μL/min, the binding time was 180 s, and the dissociation time was 300 s. After dissociation was completed, regeneration was performed with 10 mM Gly-HCl (pH 2.0) for 20 s to completely remove antibody bound to the antigen.
Parameter fitting: The experiment was run in multiple cycles, with the response signal plotted against analysis time on the abscissa and response value on the ordinate. After dual-reference subtraction, the obtained data were fitted by BIAcore T200 analysis software. The fitting model used was a 1:1 Langmuir binding model, so as to determine affinity indicators such as the binding dissociation constant.

[2] = target: T2, 63-scFv-LH (human); experiment: BLI (Gator), biotinylated antigen on SA probe, antibody 0.62-40 nM
T2 construct: scFv-Fc
Procedure: (§1) Protein biotinylation: The antigen protein huCD3E AA1-27-huFc was diluted to a final concentration of 1 mg/mL, premixed with biotin and reacted at 4° C. for 1 h, and then unreacted free biotin was removed by filtration with an ultrafiltration tube to obtain biotinylated huCD3E AA1-27-huFc (hereinafter referred to as huCD3E-AA1-27-huFc-Biotin).
(§2) In the dark, the sensor was pre-wetted with Q Buffer (SA Probes, ProbeLife). After 10 min, the sample plate (Greiner, 655209) was tested. After the test was correct, the preset procedure was followed. First, antigen binding was performed for 600 s. After the binding was completed and equilibration was continued in Q Buffer for 30 s, the sensor bound to the antigen huCD3E-AA1-27-huFc-Biotin was transferred to different concentrations of antibody dilutions for binding for 120 s, and then transferred to Q Buffer for dissociation for 180 s. Finally, KD, Ka and Kd were obtained by fitting the binding and dissociation data of different concentrations of antigens and antibodies.

[3] = target: T3, 79-scFv-LH (human); experiment: as above
T3 construct: scFv-Fc
Procedure: as §1, §2

[4] = target: T1, H2C-scFv-LH; experiment: as above
Procedure: as §1, §2

Binder	Kd [1]	koff [1]	kon [1]	Kd [2]	koff [2]	kon [2]	Kd [3]	koff [3]	kon [3]	Kd [4]	koff [4]	kon [4]
huCD3E-AA1-27-huFc (Fc fusion, Made in HEK293 cells, purified on Protein A/G. No linker between the two parts is mentioned; also called antigen protein) QDGNEEMGGITQTPYKVSISGTTVILTTHTCPPCPAPELLGGPSVFLFPPKPKDTLMISRTPEVTCVVVDVSHEDPQVKFNWYVDGVQVHNAKTKPREQQYNSTYRVVSVLTVLHQNWLDGKEYKCKVSNKALPAPIEKTISKAKGQPREPQVYTLPPSREEMTKNQVSLTCLVKGFYPSDIAVEWESNGQPENNYKTTPPVLDSDGSFFLYSKLTVDKSRWQQGNVFSCSVMHEALHNHYTQKSLSLSPGK	0.0596 nM	0.000165 s⁻¹	2.77e+06 M⁻¹ s⁻¹									
huCD3E-AA1-27-huFc-Biotin (Fc fusion, biotinylated (sites not given), also called biotinylated huCD3E AA1-27-huFc) QDGNEEMGGITQTPYKVSISGTTVILTTHTCPPCPAPELLGGPSVFLFPPKPKDTLMISRTPEVTCVVVDVSHEDPQVKFNWYVDGVQVHNAKTKPREQQYNSTYRVVSVLTVLHQNWLDGKEYKCKVSNKALPAPIEKTISKAKGQPREPQVYTLPPSREEMTKNQVSLTCLVKGFYPSDIAVEWESNGQPENNYKTTPPVLDSDGSFFLYSKLTVDKSRWQQGNVFSCSVMHEALHNHYTQKSLSLSPGK				0.358 nM	0.000428 s⁻¹	1.19e+06 M⁻¹ s⁻¹	0.222 nM	0.000184 s⁻¹	826000 M⁻¹ s⁻¹	0.318 nM	0.000327 s⁻¹	1.03e+06 M⁻¹ s⁻¹
